Three molecules from publication PMC4207087 (Current biology : CB, 2014) can be followed below.

Read-outs that look alike come from different tables or passages of the source.

The target in data set [1] is microtubules (MTs), individual (UniProt P68363). Put plainly: single-molecule TIRF microscopy.
The target is the same in data set [2]. Briefly: single-molecule TIRF microscopy. The source holds these as a separate data set.
Data set [3] shares this target. Put plainly: single-molecule TIRF microscopy. This is another data set of the same source.
Data set [4] concerns the molecule itself. Put plainly: single-molecule photobleaching steps.
Data set [5] concerns the molecule itself. Briefly: negative stain electron microscopy.
Data set [6] deals with the molecule itself. Briefly: SEC. For orientation: Size exclusion chromatography separates by hydrodynamic size, large species first.

microtubules (MTs), individual, sequence (P68363 whole entry, chain 1 of 2): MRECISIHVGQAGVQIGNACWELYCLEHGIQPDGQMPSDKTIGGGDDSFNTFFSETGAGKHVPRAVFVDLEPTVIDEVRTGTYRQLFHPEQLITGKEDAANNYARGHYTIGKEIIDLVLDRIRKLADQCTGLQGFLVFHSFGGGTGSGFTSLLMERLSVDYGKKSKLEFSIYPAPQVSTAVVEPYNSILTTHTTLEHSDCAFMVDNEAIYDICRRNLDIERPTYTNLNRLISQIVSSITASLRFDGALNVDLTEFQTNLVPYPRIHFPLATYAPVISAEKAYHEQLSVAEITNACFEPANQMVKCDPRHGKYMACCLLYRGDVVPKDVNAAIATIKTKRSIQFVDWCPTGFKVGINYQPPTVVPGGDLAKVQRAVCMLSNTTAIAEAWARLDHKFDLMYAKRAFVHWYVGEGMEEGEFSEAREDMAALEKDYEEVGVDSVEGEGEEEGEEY
microtubules (MTs), individual, sequence (P07437 whole entry, chain 2 of 2, further chain): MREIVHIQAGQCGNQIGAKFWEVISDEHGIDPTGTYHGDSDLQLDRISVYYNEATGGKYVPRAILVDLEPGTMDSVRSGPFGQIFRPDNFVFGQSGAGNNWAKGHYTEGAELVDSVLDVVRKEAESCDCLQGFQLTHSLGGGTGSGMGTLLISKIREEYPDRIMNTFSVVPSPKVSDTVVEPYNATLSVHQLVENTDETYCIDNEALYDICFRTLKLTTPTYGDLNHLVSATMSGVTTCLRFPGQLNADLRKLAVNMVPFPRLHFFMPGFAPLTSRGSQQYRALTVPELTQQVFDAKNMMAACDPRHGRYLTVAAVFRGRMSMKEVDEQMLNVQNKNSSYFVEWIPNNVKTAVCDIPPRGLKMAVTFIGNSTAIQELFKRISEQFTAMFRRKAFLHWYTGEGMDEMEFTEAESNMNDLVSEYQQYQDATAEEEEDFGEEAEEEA

B1: GFP-Kif15-FL (full-length Kif15, Kinesin-12) (natural protein, UniProt Q9NS87 1-1388, looked up)
chain: MAPGCKTELRSVTNGQSNQPSNEGDAIKVFVRIRPPAERSGSADGEQNLCLSVLSSTSLRLHSNPEPKTFTFDHVADVDTTQESVFATVAKSIVESCMSGYNGTIFAYGQTGSGKTFTMMGPSESDNFSHNLRGVIPRSFEYLFSLIDREKEKAGAGKSFLCKCSFIEIYNEQIYDLLDSASAGLYLREHIKKGVFVVGAVEQVVTSAAEAYQVLSGGWRNRRVASTSMNRESSRSHAVFTITIESMEKSNEIVNIRTSLLNLVDLAGSERQKDTHAEGMRLKEAGNINRSLSCLGQVITALVDVGNGKQRHVCYRDSKLTFLLRDSLGGNAKTAIIANVHPGSRCFGETLSTLNFAQRAKLIKNKAVVNEDTQGNVSQLQAEVKRLKEQLAELASGQTPPESFLTRDKKKTNYMEYFQEAMLFFKKSEQEKKSLIEKVTQLEDLTLKKEKFIQSNKMIVKFREDQIIRLEKLHKESRGGFLPEEQDRLLSELRNEIQTLREQIEHHPRVAKYAMENHSLREENRRLRLLEPVKRAQEMDAQTIAKLEKAFSEISGMEKSDKNQQGFSPKAQKEPCLFANTEKLKAQLLQIQTELNNSKQEYEEFKELTRKRQLELESELQSLQKANLNLENLLEATKACKRQEVSQLNKIHAETLKIITTPTKAYQLHSRPVPKLSPEMGSFGSLYTQNSSILDNDILNEPVPPEMNEQAFEAISEELRTVQEQMSALQAKLDEEEHKNLKLQQHVDKLEHHSTQMQELFSSERIDWTKQQEELLSQLNVLEKQLQETQTKNDFLKSEVHDLRVVLHSADKELSSVKLEYSSFKTNQEKEFNKLSERHMHVQLQLDNLRLENEKLLESKACLQDSYDNLQEIMKFEIDQLSRNLQNFKKENETLKSDLNNLMELLEAEKERNNKLSLQFEEDKENSSKEILKVLEAVRQEKQKETAKCEQQMAKVQKLEESLLATEKVISSLEKSRDSDKKVVADLMNQIQELRTSVCEKTETIDTLKQELKDINCKYNSALVDREESRVLIKKQEVDILDLKETLRLRILSEDIERDMLCEDLAHATEQLNMLTEASKKHSGLLQSAQEELTKKEALIQELQHKLNQKKEEVEQKKNEYNFKMRQLEHVMDSAAEDPQSPKTPPHFQTHLAKLLETQEQEIEDGRASKTSLEHLVTKLNEDREVKNAEILRMKEQLREMENLRLESQQLIEKNWLLQGQLDDIKRQKENSDQNHPDNQQLKNEQEESIKERLAKSKIVEEMLKMKADLEEVQSALYNKEMECLRMTDEVERTQTLESKAFQEKEQLRSKLEEMYEERERTSQEMEMLRKQVECLAEENGKLVGHQNLHQKIQYVVRLKKENVRLAEETEKLRAENVFLKEKKRSES
By stoichiometry N is commonly meant the number of molecules, sites or subunits per partner or assembly. In the case of B1, the figures for the dwell time in data set [1], in data set [2] and in data set [3] were 12.2 s, 1.9 s and 4 s, respectively. Besides, the “stoichiometry N” value in data set [4] was 2.

B2: GFP-HSET (kinesin-14 HSET) (natural protein, UniProt Q9BW19 1-673, looked up)
chain: MDPQRSPLLEVKGNIELKRPLIKAPSQLPLSGSRLKRRPDQMEDGLEPEKKRTRGLGATTKITTSHPRVPSLTTVPQTQGQTTAQKVSKKTGPRCSTAIATGLKNQKPVPAVPVQKSGTSGVPPMAGGKKPSKRPAWDLKGQLCDLNAELKRCRERTQTLDQENQQLQDQLRDAQQQVKALGTERTTLEGHLAKVQAQAEQGQQELKNLRACVLELEERLSTQEGLVQELQKKQVELQEERRGLMSQLEEKERRLQTSEAALSSSQAEVASLRQETVAQAALLTEREERLHGLEMERRRLHNQLQELKGNIRVFCRVRPVLPGEPTPPPGLLLFPSGPGGPSDPPTRLSLSRSDERRGTLSGAPAPPTRHDFSFDRVFPPGSGQDEVFEEIAMLVQSALDGYPVCIFAYGQTGSGKTFTMEGGPGGDPQLEGLIPRALRHLFSVAQELSGQGWTYSFVASYVEIYNETVRDLLATGTRKGQGGECEIRRAGPGSEELTVTNARYVPVSCEKEVDALLHLARQNRAVARTAQNERSSRSHSVFQLQISGEHSSRGLQCGAPLSLVDLAGSERLDPGLALGPGERERLRETQAINSSLSTLGLVIMALSNKESHVPYRNSKLTYLLQNSLGGSAKMLMFVNISPLEENVSESLNSLRFASKVNQCVIGTAQANRK
Regarding B2, the “stoichiometry N” value in data set [5] stood at 2.

B3: Kif15-N700 (C-terminally truncated Kif15) (domain or fragment, UniProt Q9NS87 1-700, looked up)
chain: MAPGCKTELRSVTNGQSNQPSNEGDAIKVFVRIRPPAERSGSADGEQNLCLSVLSSTSLRLHSNPEPKTFTFDHVADVDTTQESVFATVAKSIVESCMSGYNGTIFAYGQTGSGKTFTMMGPSESDNFSHNLRGVIPRSFEYLFSLIDREKEKAGAGKSFLCKCSFIEIYNEQIYDLLDSASAGLYLREHIKKGVFVVGAVEQVVTSAAEAYQVLSGGWRNRRVASTSMNRESSRSHAVFTITIESMEKSNEIVNIRTSLLNLVDLAGSERQKDTHAEGMRLKEAGNINRSLSCLGQVITALVDVGNGKQRHVCYRDSKLTFLLRDSLGGNAKTAIIANVHPGSRCFGETLSTLNFAQRAKLIKNKAVVNEDTQGNVSQLQAEVKRLKEQLAELASGQTPPESFLTRDKKKTNYMEYFQEAMLFFKKSEQEKKSLIEKVTQLEDLTLKKEKFIQSNKMIVKFREDQIIRLEKLHKESRGGFLPEEQDRLLSELRNEIQTLREQIEHHPRVAKYAMENHSLREENRRLRLLEPVKRAQEMDAQTIAKLEKAFSEISGMEKSDKNQQGFSPKAQKEPCLFANTEKLKAQLLQIQTELNNSKQEYEEFKELTRKRQLELESELQSLQKANLNLENLLEATKACKRQEVSQLNKIHAETLKIITTPTKAYQLHSRPVPKLSPEMGSFGSLYTQNSSILDNDILN
Regarding B3, in data set [6], the “stoichiometry N” value was determined as 2.
